The record followed here is the RNAGym collection of RNA variant scans (doi:10.7554/elife.90254).

The chains are these.
B1: LINE1-full (parent)
chain: UACGUAGGUGGUUUUCCCCUGAUAGUGCUAAGGGGGCCUGGAAGUUUGGACUGGGCAGAGCUCAACACAGCGUGGCAAAGUGGCUGUGGCUAGACUGCCUCUCUGGAUUCCUCGUCACUCAGCAGGGCAUCUCUGAGAGAAAUGCC

This series covers variants of B1. Description: self-cleavage, relative activity (ratio to wild type); higher = more cleavage; in vitro, sequencing; the parent is a self-cleaving ribozyme.
UACGUAGGUGGUUUUCCCCUGAUAGUGCUAAGGGGGCCUGGAAGUUUGGACUGGGCAGAGCUCAACACAGCGCGGCAAAGUGGCUGUGGCUAGACUGCCUCUCUGGACUCCUCGUCACUCAGCAGGGCAUCUCUGAGAGAAAUGCC: the self-cleavage is 0.95. The figure for UACGUAGGUGGUUUUCCCCUGAUAGUGCUAAGGGGGCCUGGAAGUUUGGACUGGGCAGAGCUCAACACAGCGGGGCGAAGUGGCUGUGGCUAGACUGCCUCUCUGGAUUCCUCGUCACUCAGCAGGGCAUCUCUGAGAGAAAUGCC is 0.98; for UACGUAGGUGGUUUUCCCCUGAUAGUGCUAAGGGGGCCUGGAAGUUUGGACUGGGCAGAGCUCAACACAGCGGGGCAAAGUGGCUGUGGCUAGACUGCCUCUCUGGAUUCCUCGUCACUCAGCGGGGCAUCUCUGAGAGAAAUGCC it is 0.78. The figure for UACGUAGGUGGUUUUCCCCUGAUAGUGCUAAGGGGGCCUGGAAGUUUGGACUGGGCAGAGCUCAACACAGCGCGGCAAAGUGGCUGUGGCUAGACGGCCUCUCUGGAUUCCUCGUCACUCAGCAGGGCAUCUCUGAGAGAAAUGCC is 0.19.

For the variant UACGUAGGUGGUUUUCCCCUGAUAGUGCUAAGGGGGCCUGGAAGUUUGGACUGGGCAGAGCUCAACACAGCGCGGCAAAGUGGCUGUGGCUAGACCGCCUCUCUGGAUUCCUCGUCACUCAGCAGGGCAUCUCUGAGAGAAAUGCC, the self-cleavage was determined as 0.11. Take UACGUAGGUGGUUUUCCCCUGAUAGUGCUAAGGGGGCCUGGAAGUUUGGACUGGGCAGAGCUCAACACAGCGCGGCAAAGUGGCUGUGGCUAGACAGCCUCUCUGGAUUCCUCGUCACUCAGCAGGGCAUCUCUGAGAGAAAUGCC: the self-cleavage amounted to 0.14. For the variant UACGUAGGUGGUUUUCCCCUGAUAGUGCUAAGGGGGCCUGGAAGUUUGGACUGGGCAGAGCUCAACACAGCGCGGCAAAGUGGCUGUGGCUAGACUGCCUCUCUGGAUUCCCCGUCACUCAGCAGGGCAUCUCUGAGAGAAAUGCC, the self-cleavage was 1.65. The same measure for UACGUAGGUGGUUUUCCCCUGAUAGUGCUAAGGGGGCCUGGAAGUUUGGACUGGGCAGAGCUCAACACAGCGCGGCAAAGUGGCUGUGGCUAGACUGCCUCUCUGGAUUCCACGUCACUCAGCAGGGCAUCUCUGAGAGAAAUGCC: 1.41; for UACGUAGGUGGUUUUCCCCUGAUAGUGCUAAGGGGGCCUGGAAGUUUGGACUGGGCAGAGCUCAACACAGCGCGGCAAAGUGGCUGUGGCUAGACUGCCUCUCUGGAUUCCUCGUCACUCAGCAGGGCACCUCUGAGAGAAAUGCC: 1.81.

UACGUAGGUGGUUUUCCCCUGAUAGUGCUAAGGGGGCCUGGAAGUUUGGACUGGGCAGAGCUCAACACAGCGCGGCAAAGUGGCUGUGGCUAGACUGCCUCUCUGGAUUCCUCGUCACUCAGCAGGGCAACUCUGAGAGAAAUGCC: the self-cleavage is 1.2.

For the variant UACGUAGGUGGUUUUCCCCUGAUAGUGCUAAGGGGGCCUGGAAGUUUGGACUGGGCAGAGCUCAACACAGCGCGGCAAAGUGGCUGUGGCUAGACUGCCUCUCUGGAUUCCUCGUCACUCAGCAGGGCAUCUCUGAGAGAAAUGAC, the self-cleavage turned out to be 1.44. The figure for UACGUAGGUGGUUUUCCCCUGAUAGUGCUAAGGGGGCCUGGAAGUUUGGACUGGGCAGAGCUCAACACAGCGCGGCAAAGUGGCUGUGGCUAGACUGCCUCUCUGGAUUCCUCGUCACUCAGCAGGGCAUCUCUGAGAGAAAUGCU is 1.04. The same measure for UACGUAGGUGGUUUUCCCCUGAUAGUGCUAAGGGGGCCUGGAAGUUUGGACUGGGCAGAGCUCAACACAGCGCGGCAAAGUGGCUGUGGCUAGACUGCCUCUCUGGAUUCCUCGUCACUCAGCAGGGCAUCUCUGAGAGAAAUGCA: 2.24. As to UACGUAGGUGGUUUUCCCCUGAUAGUGCUAAGGGGGCCUGGAAGUUUGGACUGGGCAGAGCUCAACACAGCGCGGCAAAGUGGCUGUGGCUAGACUGCCUCUCUGGAUUCCUCGUCACUCAGCAGGGCAUCUCUGAGAUAAAUGCC, the self-cleavage was found to be 2.83. With UACGUAGGUGGUUUUCCCCUGAUAGUGCUAAGGGGGCCUGGAAGUUUGGACUGGGCAGAGCUCAACACAGCGCGGCAAAGUGGCUGUGGCUAGACUGCCUCUCUGGAUUCCUCGUCACUCAGCAGGGCAUCUCUGAUAGAAAUGCC, the self-cleavage worked out at 2.46. The figure for UACGUAGGUGGUUUUCCCCUGAUAGUGCUAAGGGGGCCUGGAAGUUUGGACUGGGCAGAGCUCAACACAGCGCGGCAAAGGGGCUGUGGCUAGACUGCCUCUCUGGAUUCCUCGUCACUCAGCAGGGCAUCUCUGAGAGAAAUGCC is 2.04; for UACGUAGGUGGUUUUCCCCUGAUAGUGCUAAGGGGGCCUGGAAGUUUGGACUGGGCAGAGCUCAACACAGCGCGGCAAAGAGGCUGUGGCUAGACUGCCUCUCUGGAUUCCUCGUCACUCAGCAGGGCAUCUCUGAGAGAAAUGCC it is 2.36; for UACGUAGGUGGUUUUCCCCUGAUAGUGCUAAGGGGGCCUGGAAGUUUGGACUGGGCAGAGCUCAACACAGCGCGGCAAAGUGGCUGUGGCUAGACUGCCUCUCUGGAUUCCUCGUCACUCAGCAGAGCAUCUCUGAGAGAAAUGCC it is 2.44. On to UACGUAGGUGGUUUUCCCCUGAUAGUGCUAAGGGGGCCUGGAAGUUUGGACUGGGCAGAGCUCAACACAGCGCGGCAAAGUGGCUGUGGCUAGACUGCCUCUCUGGAUUCCUCGUCACUCAGCAGUGCAUCUCUGAGAGAAAUGCC, for which the self-cleavage is 1.85.

As for UACGUAGGUGGUUUUCCCCUGAUAGUGCUAAGGGGGCCUGGAAGUUUGGACUGGGCAGAGCUCAACACAGCGCGGCAAAGUGGCUGUGGCUAGACUGCCUCUCUGGAUUCCUCGUCACCCAGCAGGGCAUCUCUGAGAGAAAUGCC, the self-cleavage is 2.11. The figure for UACGUAGGUGGUUUUCCCCUGAUAGUGCUAAGGGGGCCUGGAAGUUUGGACUGGGCAGAGCUCAACACAGCGCGGCAAAGUGGCUGUGGCUAGACUGCCUCUCUGGAUUCCUCGUCACACAGCAGGGCAUCUCUGAGAGAAAUGCC is 1.64; for UACGUAGGUGGUUUUCCCCUGAUAGUGCUAAGGGGGCCUGGAAGUUUGGACUGGGCAGAGCUCAACACAGCGCGGCAAAGUGGCUGUGGCUAGACUGCCUCUCUGGAUUCCUCGUCACUCAGCAAGGCAUCUCUGAGAGAAAUGCC it is 0.8; for UACGUAGGUGGUUUUCCCCUGAUAGUGCUAAGGGGGCCUGGAAGUUUGGACUGGGCAGAGCUCAACACAGCGCGGCAAAGUGGCUGUGGCUAGACUGCCUCUCUGGAUUCCUCGUCACUCAGCACGGCAUCUCUGAGAGAAAUGCC it is 2.47. For the variant UACGUAGGUGGUUUUCCCCUGAUAGUGCUAAGGGGGCCUGGAAGUUUGGACUGGGCAGAGCUCAACACAGCGCGGCAAAGUGGCUGUGGCUAGACUGCCUCUCUGGAUUCCUCGUCACUCAGCAGGGCAUCUCUAAGAGAAAUGCC, the self-cleavage turned out to be 1.07. Consider UACGUAGGUGGUUUUCCCCUGAUAGUGCUAAGGGGGCCUGGAAGUUUGGACUGGGCAGAGCUCAACACAGCGCUGCAAAGUGGCUGUGGCUAGACUGCCUCUCUGGAUUCCUCGUCACUCAGCAGGGCAUCUCUGAGAGAAAUGCC, for which the self-cleavage stood at 1.64. Consider UACGUAGGUGGUUUUCCCCUGAUAGUGCUAAGGGGGCCUGGAAGUUUGGACUGGGCAGAGCUCAACACAGCGCGGCAAAGUGGCUGUGGCUAGACUGCCUCUCUGGAUUCCUCGUCACUCAGCAGGUCAUCUCUGAGAGAAAUGCC, for which the self-cleavage was 0.92. The same measure for UACGUAGGUGGUUUUCCCCUGAUAGUGCUAAGGGGGCCUGGAAGUUUGGACUGGGCAGAGCUCAACACAGCGCGGCAAAGUGGCUGUGGCAAGACUGCCUCUCUGGAUUCCUCGUCACUCAGCAGGGCAUCUCUGAGAGAAAUGCC: 0.57; for UACGUAGGUGGUUUUCCCCUGAUAGUGCUAAGGGGGCCUGGAAGUUUGGACUGGGCAGAGCUCAACACAGCGCGGCAAAGUGACUGUGGCUAGACUGCCUCUCUGGAUUCCUCGUCACUCAGCAGGGCAUCUCUGAGAGAAAUGCC: 1.63; for UACGUAGGUGGUUUUCCCCUGAUAGUGCUAAGGGGGCCUGGAAGUUUGGACUGGGCAGAGCUCAACACAGCGCGGCAAAGUGGCUGUGGCUAGACUGCCUCUCUGGAUUCCUCGACACUCAGCAGGGCAUCUCUGAGAGAAAUGCC: 1.58. As for UACGUAGGUGGUUUUCCCCUGAUAGUGCUAAGGGGGCCUGGAAGUUUGGACUGGGCAGAGCUCAACACAGCGCGGCAAAGUGGCUUUGGCUAGACUGCCUCUCUGGAUUCCUCGUCACUCAGCAGGGCAUCUCUGAGAGAAAUGCC, the self-cleavage is 0.03. The figure for UACGUAGGUGGUUUUCCCCUGAUAGUGCUAAGGGGGCCUGGAAGUUUGGACUGGGCAGAGCUCAACACAGCGCGGCAAAGUGGCUGUGGCUAGACUGCCUCUCUGGAUUCCUCGUCACUCAACAGGGCAUCUCUGAGAGAAAUGCC is 1.19; for UACGUAGGUGGUUUUCCCCUGAUAGUGCUAAGGGGGCCUGGAAGUUUGGACUGGGCAGAGCUCAACACAGCGCGGCAAAGUGGCUGUGGCUAGACUGCCUCUCUGGAUUCCUCGUCACUCAGCAGGGCAUCCCUGAGAGAAAUGCC it is 2.09. Take UACGUAGGUGGUUUUCCCCUGAUAGUGCUAAGGGGGCCUGGAAGUUUGGACUGGGCAGAGCUCAACACAGCGCGGCAAAGUGGCUGUGGCUAGACUGCCUCUCUGGAUUCCUCGUCACUCAGCAGGGCAUCACUGAGAGAAAUGCC: the self-cleavage is 1.25. The figure for UACGUAGGUGGUUUUCCCCUGAUAGUGCUAAGGGGGCCUGGAAGUUUGGACUGGGCAGAGCUCAACACAGCGCGGCAAAGUGGCUGUGGCUAGACUGCCUCUCUGGAUUCCUCGUCACUCAGCAGGGCAUCUCUGAGAGAAACGCC is 2.13; for UACGUAGGUGGUUUUCCCCUGAUAGUGCUAAGGGGGCCUGGAAGUUUGGACUGGGCAGAGCUCAACACAGCGCGGCAAAGUGGCUGUGGCUAGACUGCCUCUCUGGAUUCCUCGUCACUCAGCAGGGCAUCUCUGAGAGAAAAGCC it is 1.63; for UACGUAGGUGGUUUUCCCCUGAUAGUGCUAAGGGGGCCUGGAAGUUUGGACUGGGCAGAGCUCAACACAGCGCGGCAAAGUGGCUGUGGCUAGACUGCCUCUCUGGAUUCCUCGUCACUCAGCAGGGCAUCUCGGAGAGAAAUGCC it is 1.7. The same measure for UACGUAGGUGGUUUUCCCCUGAUAGUGCUAAGGGGGCCUGGAAGUUUGGACUGGGCAGAGCUCAACACAGCGCGGCAAAGUGGCUGUAGCUAGACUGCCUCUCUGGAUUCCUCGUCACUCAGCAGGGCAUCUCUGAGAGAAAUGCC: 0.06; for UACGUAGGUGGUUUUCCCCUGAUAGUGCUAAGGGGGCCUGGAAGUUUGGACUGGGCAGAGCUCAACACAGCGGGGCAAAGUGGCUGUGGCUAGACUGCCUCUCUGGAUUCCUCGUCACUCGGCAGGGCAUCUCUGAGAGAAAUGCC: 2.45; for UACGUAGGUGGUUUUCCCCUGAUAGUGCUAAGGGGGCCUGGAAGUUUGGACUGGGCAGAGCUCAACACAGCGCGGCAAAGUGGCAGUGGCUAGACUGCCUCUCUGGAUUCCUCGUCACUCAGCAGGGCAUCUCUGAGAGAAAUGCC: 0.08.
